Assay [1] deals with α2β1 integrin (UniProt P17301). Briefly: single-virus force spectroscopy (FD-curve-based AFM); virus particle on the AFM tip through a PEG27 linker; α2β1 integrin coupled by NHS/EDC to a gold surface; virion-storage buffer (150 mM NaCl, 15 mM MgCl2, 10 mM Tris pH 7.4) with 2 mM Mn2+; ~25 °C; koff from a Bell-Evans fit, kon from BF against contact time, KD = koff/kon.
The target in assay [2] is α2β1 integrin (UniProt P17301). Kind of assay: BLI; as a11, virion-storage buffer (15 mM Mg2+) without further cation. (In BLI a coated tip is dipped into the sample, and binding shifts an interference pattern.)
The target in assay [3] is β1 integrin on living Lec2 cells (Chinese hamster (endogenous in Lec2)). Kind of assay: single-virus force spectroscopy (FD-curve-based AFM); virion on the AFM tip; living Lec2 cells, PeakForce QNM mode, cell culture conditions; 0.5 mM Mn2+.
For assay [4], the target named is α2β1 integrin (UniProt P17301). Kind of assay: single-virus force spectroscopy (FD-curve-based AFM); as a1 but 15 mM Mg2+ of the virion-storage buffer as only divalent cation.
Assay [5] concerns the target α2β1 integrin (UniProt P17301). Briefly: BLI; α2β1 integrin immobilised on amine-reactive (AR2G) biosensors; T3SA+ virus ~10^13 particles/mL (16 nM in the fit) in virion-storage buffer with 2 mM Mn2+; room temperature; BLItz.
For assay [6], the target named is β1 integrin on living Lec2 cells (Chinese hamster (endogenous in Lec2)). Kind of assay: single-virus force spectroscopy (FD-curve-based AFM); virion on the AFM tip; living Lec2 cells, PeakForce QNM mode; 0.5 mM Mg2+.
Assay [7] addresses α2β1 integrin (UniProt P17301). Kind of assay: single-virus force spectroscopy (FD-curve-based AFM); as a1 (Mn2+), with 1 mM Neu5Ac.
In assay [8] the target is α2β1 integrin (UniProt P17301). Kind of assay: single-virus force spectroscopy (FD-curve-based AFM); as a1 but with 2 mM Ca2+ instead of Mn2+.
Assay [9] has as its target β1 integrin on living Lec2 cells (Chinese hamster (endogenous in Lec2)). Kind of assay: single-virus force spectroscopy (FD-curve-based AFM); virion on the AFM tip; living Lec2 cells, PeakForce QNM mode; with Ca2+ (concentration on cells not stated).
The target of assay [10] is α2β1 integrin (UniProt P17301). Kind of assay: BLI; as a11, virion-storage buffer with 2 mM Ca2+.
In assay [11] the target is T1, α2β1 integrin (UniProt P17301 30-1132; P05556 21-728).
T1 construct: integrin α2 subunit; integrin β1 subunit; No catalogue number printed; The vendor's recombinant α2β1 is, as far as I recall, the human extracellular domains joined by acidic and basic tails; Coupled through amines (NHS/EDC) to gold surfaces or AR2G biosensors; also called α2β1 integrins; β1 integrins; source: bought: R&D Systems
Kind of assay: single-virus force spectroscopy (FD-curve-based AFM); virus particle on the AFM tip through a PEG27 linker; α2β1 integrin coupled by NHS/EDC to a gold surface; virion-storage buffer (150 mM NaCl, 15 mM MgCl2, 10 mM Tris pH 7.4) with 2 mM Mn2+; ~25 °C; koff from a Bell-Evans fit, kon from BF against contact time, KD = koff/kon. The following applies: both partners purified.

Sequence of α2β1 integrin (UniProt P17301) (P17301 30-1132, chain 1 of 2): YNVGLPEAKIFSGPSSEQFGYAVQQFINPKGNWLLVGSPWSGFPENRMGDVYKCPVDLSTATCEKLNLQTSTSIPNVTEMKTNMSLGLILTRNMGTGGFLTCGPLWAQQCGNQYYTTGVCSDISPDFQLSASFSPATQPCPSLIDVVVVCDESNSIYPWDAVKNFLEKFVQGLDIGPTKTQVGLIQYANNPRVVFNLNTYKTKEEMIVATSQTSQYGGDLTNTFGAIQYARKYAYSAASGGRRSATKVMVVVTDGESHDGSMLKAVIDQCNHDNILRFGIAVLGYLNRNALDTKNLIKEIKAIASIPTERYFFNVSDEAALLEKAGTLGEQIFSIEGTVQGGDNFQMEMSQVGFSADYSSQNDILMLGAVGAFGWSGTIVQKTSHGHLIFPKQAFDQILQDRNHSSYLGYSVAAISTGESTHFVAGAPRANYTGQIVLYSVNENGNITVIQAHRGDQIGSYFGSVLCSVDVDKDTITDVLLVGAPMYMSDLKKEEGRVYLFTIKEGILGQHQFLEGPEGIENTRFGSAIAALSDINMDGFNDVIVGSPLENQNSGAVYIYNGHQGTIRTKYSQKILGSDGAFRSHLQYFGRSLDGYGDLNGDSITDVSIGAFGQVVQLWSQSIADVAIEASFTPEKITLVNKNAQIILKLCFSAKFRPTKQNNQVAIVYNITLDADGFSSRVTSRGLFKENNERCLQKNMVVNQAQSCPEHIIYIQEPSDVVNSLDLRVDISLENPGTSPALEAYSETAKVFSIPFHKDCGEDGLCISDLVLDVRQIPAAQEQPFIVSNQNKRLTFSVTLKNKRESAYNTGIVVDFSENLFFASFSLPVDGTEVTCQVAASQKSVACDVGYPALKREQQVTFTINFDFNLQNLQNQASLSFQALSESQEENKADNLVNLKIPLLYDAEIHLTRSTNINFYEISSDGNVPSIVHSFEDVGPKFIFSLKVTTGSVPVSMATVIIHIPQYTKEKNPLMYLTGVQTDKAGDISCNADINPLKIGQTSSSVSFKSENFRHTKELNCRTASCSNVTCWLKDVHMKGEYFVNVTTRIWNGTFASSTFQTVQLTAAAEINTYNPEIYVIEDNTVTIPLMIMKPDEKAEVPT
Sequence of α2β1 integrin (UniProt P17301) (P05556 21-728, chain 2 of 2, further chain): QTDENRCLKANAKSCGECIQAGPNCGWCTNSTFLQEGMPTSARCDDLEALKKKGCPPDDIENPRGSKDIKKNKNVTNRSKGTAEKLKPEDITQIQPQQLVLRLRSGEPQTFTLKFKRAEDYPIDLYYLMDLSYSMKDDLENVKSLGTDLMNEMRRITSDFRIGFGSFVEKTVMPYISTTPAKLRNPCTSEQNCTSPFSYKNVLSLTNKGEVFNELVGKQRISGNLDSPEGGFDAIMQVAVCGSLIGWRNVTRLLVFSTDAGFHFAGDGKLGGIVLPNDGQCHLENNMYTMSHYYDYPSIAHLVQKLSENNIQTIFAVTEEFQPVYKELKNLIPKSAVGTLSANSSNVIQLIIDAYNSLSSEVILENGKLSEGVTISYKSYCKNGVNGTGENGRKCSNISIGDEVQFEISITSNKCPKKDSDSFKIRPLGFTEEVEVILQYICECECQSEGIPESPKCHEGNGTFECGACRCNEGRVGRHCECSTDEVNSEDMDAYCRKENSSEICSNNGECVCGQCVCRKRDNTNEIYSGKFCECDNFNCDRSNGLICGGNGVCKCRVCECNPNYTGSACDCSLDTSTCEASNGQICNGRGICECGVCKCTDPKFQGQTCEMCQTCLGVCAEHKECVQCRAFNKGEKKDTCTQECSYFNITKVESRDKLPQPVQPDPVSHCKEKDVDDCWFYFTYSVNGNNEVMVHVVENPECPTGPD
T1 sequence (P17301 30-1132, chain 1 of 2): as the sequence (P17301 30-1132, chain 1 of 2) above
T1 sequence (P05556 21-728, chain 2 of 2): as the sequence (P05556 21-728, chain 2 of 2, further chain) above

The Kd is a measure of binding affinity in units of concentration. A high value points to weaker binding. The koff is the rate constant with which the complex falls apart. The term kon denotes the second-order rate constant of association. The low end stands for slow association, the high end for fast association. In the assay with α2β1 integrin [1], “T3SA+ infectious subvirion particle (ISVP) (from UniProt P03528 1-455; P11077 1-708) (complex)” gave a BF (binding frequency) of 4%, a Kd of 105 nM, a koff of 0.59 s⁻¹ and a kon of 5.62e+06 M⁻¹ s⁻¹.

For the molecule “reovirus strain T3SA+ virion (from UniProt P03528 1-455; P11077 1-708; P07939 1-365) (complex)”, the Kd amounted to 10 nM with α2β1 integrin [2]; 548 nM in the assay with α2β1 integrin [4]; 68 nM with α2β1 integrin [1]; 2 nM with α2β1 integrin [5]; 116 nM with α2β1 integrin [7]; 85 nM in the assay with α2β1 integrin [10]. Moreover, the BF (binding frequency) in assay [3] turned out to be 6%; with α2β1 integrin [4], 8%; in the assay with α2β1 integrin [1] it was 19%; in assay [6] it was 3%; with α2β1 integrin [8], 1%; in assay [9] it was 1%. The koff was found to be 2.1 s⁻¹ with α2β1 integrin [4], 0.4 s⁻¹ with α2β1 integrin [1] and 0.57 s⁻¹ with α2β1 integrin [7]. For the same molecule, the kon in the assay with α2β1 integrin [4] amounted to 3.83e+06 M⁻¹ s⁻¹; with α2β1 integrin [1] it was 5.83e+06 M⁻¹ s⁻¹; with α2β1 integrin [7], 4.92e+06 M⁻¹ s⁻¹. The molecule further came in with a BF (binding frequency) with Neu5Ac in the assay with α2β1 integrin [7] of 6%.

In the assay with α2β1 integrin [1], “reovirus strain T3SA- virion (from UniProt P03528 1-455; P11077 1-708; P07939 1-365) (complex)” registered a BF (binding frequency) of 7%, a Kd of 103 nM, an off-rate constant (koff) of 0.58 s⁻¹ and a kon of 5.62e+06 M⁻¹ s⁻¹.

B1: T3SA+ core (complex)
chain: MANVWGVRLADSLSSPTIETRTRHYTLRDFCSDLDAVAGKEPWRPLRNQRTNDIVAVQLFRPLQGLVLDTQFYGFPGIFSEWEQFIKEKLRVLKYEVLRIYPISNYNHERVNVFVANALVGAFLSNQAFYDLLPLLVINDTMINDLLGTGAALSQFFQSHGEVLEVAAGRKYLQMKNYSNDDDDPPLFAKDLSDYAKAFYSDTFETLDRFFWTHDSSAGVLVHYDKPTNGNHYILGTLTQMVSAPPHIINATDALLLESCLEQFAANVRARPAQPVARLDQCYHLRWGAQYVGEDSLTYRLGVLSLLATNGYQLARPIPKQLTNRWLSSFVSQVMSDGVNETPLWPQERYVQIAYDSPSVVDGATHYGYVRRNQLRLGMRVSALQSLSDTPAPIQWLPQYTIEQAAVDEGDLMVSRLTQLPLRPDYGSIWVGDALSYYVDYNRSHRVVLSSELPQLPDTYFDGDEQYGRSLFSLARKIGDRSLIKDTAVLKHAYQAIDPNTGKEYLRAGQSVAYFGASAGHSGADQPLVIEPWTQGKISGVPPPSSVRQFGYDVAKGAIVDLARPFPSGDYQFVYSDVDQVVDGHDDLSISSGLVESLLDSCMHATSPGGSFVMKINFPTRTVWHYIEQKILPNITSYMLIKPFVTNNVELFFVAFGVHQQSALTWTSGVYFFLVDHFYRYETLSTISRQLPSFGYVDDGSSVTGIEMISLENPGFSNMTQAARVGISGLCANVGNARKLISIHESHGARVLTITSRRSPASARRKARLRYLPLVDPRSLEVQARTILPSNPVLFDNVNGASPHVCLTMMYNFEVSSAVYDGDVVLDLGTGPEAKILELIPPTSPVTCVDIRPTAQPSGCWNVRTTFLELDYLSDGWITGIRGDIVTCMLSLGAAAAGKSMTFDAAFQQLVKVLTKSTANVLLIQVNCPTDVIRTIKGYLEIDQTNKRYRFPKFGRDEPYSDMDSLERICRAAWPNCSITWVPLSYDLRWTKLALLESTTLSSASVRIAELMYKYMPVMRIDIHGLPMEKQGNFIVGQNCSLTIPGFNAQDVFNCYFNSALAFSTEDVNSAMIPQVTAQFDANKGEWSLDMVFSDAGIYTMQALVGSNANPVSLGSFVVDSPDVDITDAWPAQLDFTIAGTDVDITVNPYYRLMAFVRIDGQWQIANPDKFQFFSSSTGTLVMNVKLDIADRYLLYYIRDVQSRDVGFYIQHPLQLLNTITLPTNEDLFLSAPDMREWAVKESGNTICILNSQGFVPPQDWDVLTDTISWSPSLPTYVVPPGDYTLTPL
In the assay with α2β1 integrin [11], B1 had a Kd of 741 ± 317 nM, a koff of 1.52 ± 0.4 s⁻¹ and a kon of 2.05e+06 ± 300000 M⁻¹ s⁻¹.

These data come from PMC8041799, “Reovirus directly engages integrin to recruit clathrin for entry into host cells” (Nature Communications, 2021).
